In article doi:10.1101/2022.08.12.503734:

Target: GST-Cln3-10A (S. cerevisiae (budding yeast)) (UniProt P13365)
Test: pull-down

Sequence of UniProt P13365 (P13365 whole entry): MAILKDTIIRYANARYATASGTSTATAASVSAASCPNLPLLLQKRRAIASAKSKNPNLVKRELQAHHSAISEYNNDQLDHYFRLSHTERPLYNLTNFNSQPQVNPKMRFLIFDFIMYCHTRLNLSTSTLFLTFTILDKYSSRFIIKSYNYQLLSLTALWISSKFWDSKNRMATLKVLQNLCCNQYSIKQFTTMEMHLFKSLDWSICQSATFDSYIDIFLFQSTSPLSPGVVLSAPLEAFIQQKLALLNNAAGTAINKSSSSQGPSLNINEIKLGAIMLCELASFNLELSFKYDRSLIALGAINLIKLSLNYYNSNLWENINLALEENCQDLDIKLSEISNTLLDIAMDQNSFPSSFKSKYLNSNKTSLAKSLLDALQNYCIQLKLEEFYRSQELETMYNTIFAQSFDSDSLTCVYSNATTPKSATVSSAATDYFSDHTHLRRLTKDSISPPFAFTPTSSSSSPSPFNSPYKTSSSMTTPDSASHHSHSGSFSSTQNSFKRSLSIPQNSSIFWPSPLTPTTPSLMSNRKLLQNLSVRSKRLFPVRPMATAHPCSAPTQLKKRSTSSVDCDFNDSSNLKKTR
Sequence of Cdk1 (P00546 whole entry): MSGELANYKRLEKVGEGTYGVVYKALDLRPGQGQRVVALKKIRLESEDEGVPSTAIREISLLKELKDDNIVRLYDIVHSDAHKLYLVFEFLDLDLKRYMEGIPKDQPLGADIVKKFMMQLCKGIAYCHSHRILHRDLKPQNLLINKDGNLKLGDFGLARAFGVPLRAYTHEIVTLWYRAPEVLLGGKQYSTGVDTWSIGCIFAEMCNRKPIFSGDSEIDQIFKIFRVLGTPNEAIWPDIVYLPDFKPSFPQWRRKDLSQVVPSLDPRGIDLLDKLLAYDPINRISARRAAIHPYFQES

Cdk1 (from UniProt P00546 1-298) (enzyme)
fold lower amount of associated Cdk1 than with GST-Clb2: 6 fold
